# B1: YGL153W 84-97 (peptide)
# chain: AMPPTLPHRDWKDY
# B2: YDL246C 91-104 (peptide)
# chain: AIEPGVPSRYSDET
# B3: YNL269W 98-111 (peptide)
# chain: AMTPFSPRKSHINN
# B4: YMR012W 411-424 (peptide)
# chain: AMNPESPTRDQIFL
# B5: YLL018C-A 11-24 (peptide)
# chain: ALRPTPPERGSFPL
# B6: YLR144C 7-20 (peptide)
# chain: AIPPPVPNRPGGTT
# B7: YBR089C-A 7-20 (peptide)
# chain: AKQPKEPKKRTTRR
# B8: YMR047C 1035-1048 (peptide)
# chain: ANLPNRPKRGEGIN
# B9: YLR070C 92-105 (peptide)
# chain: ALEPGIPDRFSPEM
# B10: YBR060C 65-78 (peptide)
# chain: ALKPKTPSKAPRKR
# B11: YIR003W 42-55 (peptide)
# chain: AGTPNVPTRRPILK
# B12: YHL047C 340-353 (peptide)
# chain: ALVPFAPFKLLKDR
# B13: YCL073C 330-343 (peptide)
# chain: AKSPLLPFKLLSDR
# B14: YNL139C 1465-1478 (peptide)
# chain: ALRPTGPDRGDGFD
# B15: YBL007C 849-862 (peptide)
# chain: APAPLDPFKTGGNN
# Target: T1, Boi2 SH3 (BOI2_YEAST), P39969
# T1 chain: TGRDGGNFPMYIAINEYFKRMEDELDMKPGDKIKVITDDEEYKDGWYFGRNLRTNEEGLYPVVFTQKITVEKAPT
# Assay: SPOT array
row,Binder,"normalised SPOT signal, Boehringer light units (BLU); mean over the file's lines of this peptide"
1,B1,39.4
2,B2,22.8
3,B3,884
4,B4,39.3
5,B5,27.5
6,B6,23.8
7,B7,105
8,B8,27.9
9,B9,31.2
10,B10,103
11,B11,26.9
12,B12,40.5
13,B13,46.2
14,B14,8.2
15,B15,68.1

# Target: T2, Yhr016c SH3 (YSC84_YEAST), P32793
# T2 chain: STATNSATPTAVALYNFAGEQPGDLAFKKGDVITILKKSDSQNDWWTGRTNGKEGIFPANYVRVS
# Assay: SPOT array
row,Binder,"normalised SPOT signal, Boehringer light units (BLU); mean over the file's lines of this peptide"
1,B1,25500
2,B2,153
3,B3,256
4,B4,125
5,B5,917
6,B6,6020
7,B7,78
8,B8,1230
9,B9,30.2
10,B10,341
11,B11,4390
12,B12,123
13,B13,229
14,B14,179
15,B15,22.8

# Target: T3, Yfr024 SH3 (LSB3_YEAST), P43603
# T3 chain: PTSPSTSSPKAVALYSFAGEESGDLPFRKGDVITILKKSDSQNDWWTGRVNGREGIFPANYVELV
# Assay: SPOT array
row,Binder,"normalised SPOT signal, Boehringer light units (BLU); mean over the file's lines of this peptide"
1,B1,14600
2,B2,151
3,B3,1860
4,B4,648
5,B5,1960
6,B6,11200
7,B7,854
8,B8,6370
9,B9,96.8
10,B10,2060
11,B11,24700
12,B12,121
13,B13,4310
14,B14,145
15,B15,35.4

# Target: T4, Boi1 SH3 (BOI1_YEAST), P38041
# T4 chain: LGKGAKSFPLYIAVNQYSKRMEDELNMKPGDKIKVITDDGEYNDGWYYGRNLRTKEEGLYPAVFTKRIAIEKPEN
# Assay: SPOT array
row,Binder,"normalised SPOT signal, Boehringer light units (BLU); mean over the file's lines of this peptide"
1,B1,113
2,B2,63
3,B3,642
4,B4,34.6
5,B5,230
6,B6,10.1
7,B7,196
8,B8,145
9,B9,102
10,B10,247
11,B11,4210
12,B12,16.7
13,B13,84.8
14,B14,132
15,B15,123

# Target: T5, Rvs167 SH3 (RV167_YEAST), P39743
# T5 chain: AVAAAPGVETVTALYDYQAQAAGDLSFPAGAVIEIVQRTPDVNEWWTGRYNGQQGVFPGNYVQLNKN
# Assay: SPOT array
row,Binder,"normalised SPOT signal, Boehringer light units (BLU); mean over the file's lines of this peptide"
1,B1,2620
2,B2,35.9
3,B3,422
4,B4,63
5,B5,448
6,B6,186
7,B7,130
8,B8,39.8
9,B9,56.6
10,B10,300
11,B11,448
12,B12,136
13,B13,45.1
14,B14,59.8
15,B15,47.4

# Source: paper PMC314469, “Protein Interaction Networks by Proteome Peptide Scanning” (PLoS Biology, 2004)
